Reference: publication PMC2782046 (The Journal of Biological Chemistry, 2009)
Like-named read-outs stand apart in the source and are kept apart here.

Legend:
[1] = target: Full-length human fibulin-5 (residues 42–448) (human) (UniProt Q9UBX5); experiment: ELISA
[2] = target: Human fibrillin-1 N-terminal fragment PF1, encoded by exons 1–11 (residues 31–489) (human) (UniProt P35555); experiment: ELISA
[3] = target: Recombinant human tropoelastin lacking domain 26A (human); experiment: ELISA
[4] = target: Full-length human fibulin-5 (residues 42–448) (human) (UniProt Q9UBX5); experiment: ELISA; remark: listed apart in the source
[5] = target: Recombinant human tropoelastin lacking domain 26A (human); experiment: SPR
[6] = target: Human fibrillin-1 fragment PF2 (human) (UniProt P35555); experiment: ELISA
Human fibrillin-1 fragment PF2 (human), sequence (P35555 45-2731): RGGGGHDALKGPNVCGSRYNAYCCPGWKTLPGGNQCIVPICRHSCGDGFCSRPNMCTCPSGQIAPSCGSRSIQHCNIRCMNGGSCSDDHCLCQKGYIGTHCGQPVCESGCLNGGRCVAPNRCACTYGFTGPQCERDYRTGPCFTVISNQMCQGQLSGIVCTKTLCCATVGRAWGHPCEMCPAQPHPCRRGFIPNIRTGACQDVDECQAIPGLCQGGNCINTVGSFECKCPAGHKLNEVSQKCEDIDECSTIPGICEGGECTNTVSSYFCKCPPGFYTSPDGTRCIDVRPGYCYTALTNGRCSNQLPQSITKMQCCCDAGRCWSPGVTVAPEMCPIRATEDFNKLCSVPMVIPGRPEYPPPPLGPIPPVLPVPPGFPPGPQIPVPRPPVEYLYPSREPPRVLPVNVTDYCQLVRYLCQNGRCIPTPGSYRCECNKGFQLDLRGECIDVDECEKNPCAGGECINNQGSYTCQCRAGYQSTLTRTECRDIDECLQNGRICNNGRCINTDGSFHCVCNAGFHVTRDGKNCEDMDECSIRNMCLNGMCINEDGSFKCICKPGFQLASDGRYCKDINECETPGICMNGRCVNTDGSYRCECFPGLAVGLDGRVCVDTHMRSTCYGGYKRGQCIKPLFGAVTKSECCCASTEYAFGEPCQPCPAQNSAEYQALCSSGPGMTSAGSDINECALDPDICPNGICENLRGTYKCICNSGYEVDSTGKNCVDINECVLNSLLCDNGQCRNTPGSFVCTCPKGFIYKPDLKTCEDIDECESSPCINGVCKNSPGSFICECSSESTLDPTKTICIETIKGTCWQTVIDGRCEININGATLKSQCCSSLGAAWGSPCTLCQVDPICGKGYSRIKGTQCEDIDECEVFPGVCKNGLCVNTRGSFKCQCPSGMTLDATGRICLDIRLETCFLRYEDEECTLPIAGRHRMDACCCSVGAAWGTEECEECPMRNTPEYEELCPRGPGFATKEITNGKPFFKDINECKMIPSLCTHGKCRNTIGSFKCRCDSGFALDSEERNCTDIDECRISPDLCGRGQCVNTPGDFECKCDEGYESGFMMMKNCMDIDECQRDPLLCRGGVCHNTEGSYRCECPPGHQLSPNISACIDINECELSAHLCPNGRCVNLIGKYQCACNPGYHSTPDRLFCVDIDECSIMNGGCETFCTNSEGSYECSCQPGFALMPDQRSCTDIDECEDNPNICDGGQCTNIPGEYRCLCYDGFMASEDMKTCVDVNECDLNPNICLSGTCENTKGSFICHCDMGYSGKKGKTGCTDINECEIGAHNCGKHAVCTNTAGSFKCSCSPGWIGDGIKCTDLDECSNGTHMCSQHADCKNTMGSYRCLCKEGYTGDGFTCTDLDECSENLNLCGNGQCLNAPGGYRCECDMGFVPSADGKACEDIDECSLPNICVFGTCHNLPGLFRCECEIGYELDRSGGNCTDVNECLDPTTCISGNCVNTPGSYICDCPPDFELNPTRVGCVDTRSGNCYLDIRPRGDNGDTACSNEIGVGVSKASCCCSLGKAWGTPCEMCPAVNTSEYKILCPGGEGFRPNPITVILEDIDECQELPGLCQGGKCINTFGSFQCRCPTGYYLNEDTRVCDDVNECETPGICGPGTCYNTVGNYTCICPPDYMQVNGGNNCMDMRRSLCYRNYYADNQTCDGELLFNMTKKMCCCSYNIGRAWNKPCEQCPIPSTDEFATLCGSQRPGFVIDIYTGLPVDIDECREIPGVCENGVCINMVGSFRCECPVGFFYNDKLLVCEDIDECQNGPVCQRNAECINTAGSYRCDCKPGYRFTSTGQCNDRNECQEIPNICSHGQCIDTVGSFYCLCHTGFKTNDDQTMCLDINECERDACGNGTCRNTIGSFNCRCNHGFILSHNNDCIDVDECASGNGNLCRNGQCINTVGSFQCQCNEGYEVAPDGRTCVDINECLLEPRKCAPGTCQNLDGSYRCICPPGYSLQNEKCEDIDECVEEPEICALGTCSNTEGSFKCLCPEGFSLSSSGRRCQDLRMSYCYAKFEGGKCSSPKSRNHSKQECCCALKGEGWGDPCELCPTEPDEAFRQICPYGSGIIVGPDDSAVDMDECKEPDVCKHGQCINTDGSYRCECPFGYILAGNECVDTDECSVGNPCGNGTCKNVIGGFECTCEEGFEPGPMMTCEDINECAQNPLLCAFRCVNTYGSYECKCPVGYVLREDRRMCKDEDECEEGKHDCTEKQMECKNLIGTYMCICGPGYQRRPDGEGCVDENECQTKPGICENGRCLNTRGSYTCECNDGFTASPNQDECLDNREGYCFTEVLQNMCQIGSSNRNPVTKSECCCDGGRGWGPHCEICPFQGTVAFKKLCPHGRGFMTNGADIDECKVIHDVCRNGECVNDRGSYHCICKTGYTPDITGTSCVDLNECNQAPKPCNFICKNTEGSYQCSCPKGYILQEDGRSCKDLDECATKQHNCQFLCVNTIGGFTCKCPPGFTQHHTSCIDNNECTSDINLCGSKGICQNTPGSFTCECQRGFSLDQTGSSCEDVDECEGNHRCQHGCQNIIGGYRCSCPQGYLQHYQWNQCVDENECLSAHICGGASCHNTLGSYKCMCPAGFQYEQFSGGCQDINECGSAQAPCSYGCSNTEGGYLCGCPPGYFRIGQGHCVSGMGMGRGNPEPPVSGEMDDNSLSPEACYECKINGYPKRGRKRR

[7] = target: Recombinant human tropoelastin lacking domain 26A (human); experiment: ELISA; remark: listed apart in the source
[8] = target: PF1 variant with the Marfan mutation R62C (human, UniProt P35555 31-489, R62C); experiment: ELISA
PF1 variant with the Marfan mutation R62C, sequence (P35555 31-489 R62C): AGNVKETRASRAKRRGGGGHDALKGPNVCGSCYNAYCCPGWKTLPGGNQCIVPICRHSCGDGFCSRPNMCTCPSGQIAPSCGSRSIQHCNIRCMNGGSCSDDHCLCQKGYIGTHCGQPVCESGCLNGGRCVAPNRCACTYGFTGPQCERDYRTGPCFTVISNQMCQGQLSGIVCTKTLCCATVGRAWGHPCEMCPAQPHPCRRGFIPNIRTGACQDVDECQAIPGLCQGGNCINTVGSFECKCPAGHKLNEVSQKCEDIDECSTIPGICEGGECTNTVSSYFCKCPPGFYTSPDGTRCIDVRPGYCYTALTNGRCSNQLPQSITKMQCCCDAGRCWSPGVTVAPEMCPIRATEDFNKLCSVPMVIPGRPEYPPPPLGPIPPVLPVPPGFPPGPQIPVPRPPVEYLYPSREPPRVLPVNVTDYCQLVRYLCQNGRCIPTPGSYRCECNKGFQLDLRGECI

[9] = target: PF1 variant with the Marfan mutation T101A (human, UniProt P35555 31-489, T101A); experiment: ELISA
PF1 variant with the Marfan mutation T101A, sequence (P35555 31-489 T101A): as the sequence (P35555 31-489 R62C) above, with C32R, T71A counted along it

[10] = target: PF1 variant with the Marfan mutation S115C (human, UniProt P35555 31-489, S115C); experiment: ELISA
PF1 variant with the Marfan mutation S115C, sequence (P35555 31-489 S115C): as the sequence (P35555 31-489 R62C) above, with C32R, S85C counted along it

SEC-MALS = target: the molecule itself; experiment: SEC-MALS

Human fibrillin-1 N-terminal fragment PF1, encoded by exons 1–11 (residues 31–489) (human), sequence (P35555 31-489): as the sequence (P35555 31-489 R62C) above, with C32R counted along it

## Human full-length lysyl oxidase (from UniProt P28300 22-417) (enzyme)
[1]
  Kd: 304 nM
[2]
  Kd: 26 nM
[3]
  Kd: 49 nM
[4]
  Kd: 338 nM

## Full-length fibulin-5 with the cutis laxa mutation S227P (from UniProt Q9UBX5 42-448) (natural protein)
[5]
  Kd: 3420 nM
  koff: 0.0093 s⁻¹
  kon: 20000 M⁻¹ s⁻¹

## Fibulin-5 domain pair F5-E4+5 (residues 207–287) (from UniProt Q9UBX5 207-287) (domain or fragment)
[3]
  Kd: 452 nM

## Full-length human fibulin-5 (residues 42–448) (from UniProt Q9UBX5 42-448) (natural protein)
[5]
  Kd: 64 nM
  koff: 0.0013 s⁻¹
  kon: 44000 M⁻¹ s⁻¹

## Full-length fibulin-5 with the cutis laxa mutation C217R (from UniProt Q9UBX5 42-448) (natural protein)
[5]
  Kd: 865 nM
  koff: 0.0046 s⁻¹
  kon: 8400 M⁻¹ s⁻¹

## Full-length human fibulin-4 (residues 26–418) (from UniProt O95967 26-443) (natural protein)
[6]
  Kd: 194 nM
[3]
  Kd: 131 nM

B1: Fibulin-5 domain pair F5-E6FC (residues 288–448) (domain or fragment)
chain: DINECEHRNHTCNLQQTCYNLQGGFKCIDPIRCEEPYLRISDNRCMCPAENPGCRDQPFTILYRDMDVVSGRSVPADIFQMQATTRYPGAYYIFQIKSGNEGREFYMRQTGPISATLVMTRPIKGPREIQLDLEMITVNTVINFRGSSVIRLRIYVSQYPF
modifications: biotinylated where it was the soluble ligand of a solid phase assay
[7]
  Kd: 965 nM
[8]
  binding result: binds
[9]
  binding result: binds
[10]
  binding result: binds

B2: N-terminal four domains of fibulin-4 (residues 26–217) (domain or fragment)
chain: SPQDSEEPDSYTECTDGYEWDPDSQHCRDVNECLTIPEACKGEMKCINHYGGYLCLPRSAAVINDLHGEGPPPPVPPAQHPNPCPPGYEPDDQDSCVDVDECAQALHDCRPSQDCHNLPGSYQCTCPDGYRKIGPECVDIDECRYRYCQHRCVNLPGSFRCQCEPGFQLGPNNRSCVDVNECDMGAPCEQRCFNSYGTFLCRCHQGYELHRDGFSCS
modifications: biotinylated where it was the soluble ligand of a solid phase assay
SEC-MALS
  stoichiometry N: 2

B3: Full-length human fibulin-4 (residues 26–418) (natural protein)
chain: SPQDSEEPDSYTECTDGYEWDPDSQHCRDVNECLTIPEACKGEMKCINHYGGYLCLPRSAAVINDLHGEGPPPPVPPAQHPNPCPPGYEPDDQDSCVDVDECAQALHDCRPSQDCHNLPGSYQCTCPDGYRKIGPECVDIDECRYRYCQHRCVNLPGSFRCQCEPGFQLGPNNRSCVDVNECDMGAPCEQRCFNSYGTFLCRCHQGYELHRDGFSCSDIDECSYSSYLCQYRCINEPGRFSCHCPQGYQLLATRLCQDIDECESGAHQCSEAQTCVNFHGGYRCVDTNRCVEPYIQVSENRCLCPASNPLCREQPSSIVHRYMTITSERSVPADVFQIQATSVYPGAYNAFQIRAGNSQGDFYIRQINNVSAMLVLARPVTGPREYVLDLEMVTMNSLMSYRASSVLRLTVFVGAYTF
modifications: biotinylated (sulfosuccinimidyl 2-(biotinamido)-ethyl-1,3-dithiopropionate) where it was the soluble ligand of a solid phase assay
SEC-MALS
  stoichiometry N: 2

B4: Fibulin-5 domain pair F5-E1+2 (residues 42–167) (domain or fragment)
chain: DIDECRTIPEACRGDMMCVNQNGGYLCIPRTNPVYRGPYSNPYSTPYSGPYPAAAPPLSAPNYPTISRPLICRFGYQMDESNQCVDVDECATDSHQCNPTQICINTEGGYTCSCTDGYWLLEGQCL
modifications: biotinylated where it was the soluble ligand of a solid phase assay
[7]
  Kd: 332 nM
[8]
  binding result: binds
[9]
  binding result: binds
[10]
  binding result: binds
